The text below walks through data of patent US7374920B2, “Ginkgo biloba levopimaradiene synthase” (priority 2001, dated 2008).

For this data set, the system named is EHY18 yeast cells. Description: in vivo expression of GbLS constructs in yeast strain EHY18 that accumulates GGDP, GC quantitation of products. The data set is classed as cell-based. As to conditions: for diterpene products on expression in EHY18: GC, GC/MS. Here is the method:
The yeast strain of the copending application employed was EHY18 (Hart, E., 2001) which was further transformed with multiple-copy yeast expression vectors comprising an isolated and purified nucleic acid sequence of GbLS or derivatives thereof, which are described herein under control of the GAL1 inducible promoter. Yeast cells were grown to saturation in 5 mL ScD-Leu-Ura at 30° C. Cells were harvested (1300×g, 2 min, 25° C.) and resuspended in 500 μL sterile Milli-Q H2O (2×). The washed cells were resuspended in 5 mL sterile Milli-Q H2O. An aliquot of the culture (5 μL) was added to a 25 mL Corex tube containing pre-prepared 2× resin and 5 mL ScG-Leu-Ura (4% galactose) and shaken at 30° C. for 6 days. Resin was collected by filtration through a Kontes chromatography column (1.7 cm diameter) and rinsed with dI H2O until eluent was clear. The resin was incubated in 2 mL ethanol for several minutes, eluted, and repeated 2×. The combined eluents were dissolved in approximately 3 mL dI H2O and extracted (3×) with 3 mL hexane. The combined extracts were concentrated under a stream of nitrogen. GC analysis (quantitation extrapolated from 0.2 mg/mL longifolene external standard) indicated the following product profile (obtained from triplicate measurement of three cultures): 0.61±0.20 mg/L levopimaradiene, 0.04±0.01 mg/L abietadiene, 0.15±0.05 mg/L abietatriene, 0.16±0.13 mg/L (+)-copalol, and 1.79±0.90 mg/L geranylgeraniol. GC/MS fragmentation confirmed the identity of each compound.
A large scale culture (1-L) was prepared by growing the yeast cells to saturation in 5 mL ScD-Leu-Ura at 30° C. Cells were harvested (1300×g, 2 min, 25° C.) and resuspended in 500 μL sterile Milli-Q H2O (2×). The washed cells were resuspended in 5 mL sterile Milli-Q H2O. An aliquot of the culture (1 mL) was added to a 2 L flask containing 1-L ScG-Leu-Ura (4% galactose) and 88.27 g resin in 120 mL Milli-Q H2O (pre-prepared). The resin was eluted with ethanol (3×100 mL with 20 min incubation periods), which was subsequently extracted (6×) with hexane. The combined extracts were dried over magnesium sulfate, filtered, and concentrated under reduced pressure. GC analysis (quantitation extrapolated from 0.2 mg/mL longifolene external standard) indicated the following product profile (obtained from triplicate measurement): 0.29±0.04 mg/L levopimaradiene, 0.04±0.02 mg/L abietadiene, 0.13±0.04 mg/L abietatriene, 0.11±0.02 mg/L (+)-copalol, and 0.56±0.03 mg/L geranylgeraniol. GC/MS analyses confirmed the production of the above noted diterpenes, which included hydrocarbons and an alcohol.
Further optimization studies employed the Ser61 construct. Factors influencing diterpene production included induction period and concentration of galactose and resin in the inducing medium.

Where [1] appears, read: EHY18, 6 days, 4% galactose, 0.70 g resin/5 mL culture medium, GC quantitation.

B1: Ala^2 (protein, listed as Ginkgo biloba)
chain: MAGVLFANLPCSLQLSPKVPFRQSTNILIPFHKRSSFGFNAQHCVRSHLRLRWNCVGIHASAAETRPDQLPQEERFVSRLNADYHPAVWKDDFIDSLTSPNSHATSKSSVDETINKRIQTLVKEIQCMFQSMGDGETNPSAYDTAWVARIPSIDGSGAPQFPQTLQWILNNQLPDGSWGEECIFLAYDRVLNTLACLLTLKIWNKGDIQVQKGVEFVRKHMEEMKDEADNHRPSGFEVVFPAMLDEAKSLGLDLPYHLPFISQIHQKRQKKLQKIPLNVLHNHQTALLYSLEGLQDVVDWQEITNLQSRDGSFLSSPASTACVFMHTQNKRCLHFLNFVLSKFGDYVPCHYPLDLFERLWAVDTVERLGIDRYFKKEIKESLDYVYRYWDAERGVGWARCNPIPDVDDTAMGLRILRLHGYNVSSDVLENFRDEKGDFFCFAGQTQIGVTDNLNLYRCSQVCFPGEKIMEEAKTFTTNHLQNALAKNNAFDKWAVKKDLPGEVEYAIKYPWHRSMPRLEARSYIEQFGSNDVWLGKTVYKMLYVSNEKYLELAKLDFNMVQALHQKETQHIVSWWRESGFNDLTFTRQRPVEMYFSVAVSMFEPEFAACRIAYAKTSCLAVILDDLYDTHGSLDDLKLFSEAVRRWDISVLDSVRDNQLKVCFLGLYNTVNGFGKDGLKEQGRDVLGYLRKVWEGLLASYTKEAEWSAAKYVPTFNEYVENAKVSIALATVVLNSIFFTGELLPDYILQQVDLRSKFLHLVSLTGRLINDTKTYQAERNRGELVSSVQCYMRENPECTEEEALSHVYGIIDNALKELNWELANPASNAPLCVRRLLFNTARVMQLFYMYRDGFGISDKEMKDHVSRTLFDPVA
B1: the “diterpene products on expression in EHY18” value was “produced (+)-copalol, levopimaradiene, abietadiene, and abietatriene”.

B2: Ser^61: Ginkgo biloba levopimaradiene synthase truncated at Ala^60-Ser^61; amino acid sequence SEQ.ID.NO:35 (protein, listed as Ginkgo biloba)
chain: MSAAETRPDQLPQEERFVSRLNADYHPAVWKDDFIDSLTSPNSHATSKSSVDETINKRIQTLVKEIQCMFQSMGDGETNPSAYDTAWVARIPSIDGSGAPQFPQTLQWILNNQLPDGSWGEECIFLAYDRVLNTLACLLTLKIWNKGDIQVQKGVEFVRKHMEEMKDEADNHRPSGFEVVFPAMLDEAKSLGLDLPYHLPFISQIHQKRQKKLQKIPLNVLHNHQTALLYSLEGLQDVVDWQEITNLQSRDGSFLSSPASTACVFMHTQNKRCLHFLNFVLSKFGDYVPCHYPLDLFERLWAVDTVERLGIDRYFKKEIKESLDYVYRYWDAERGVGWARCNPIPDVDDTAMGLRILRLHGYNVSSDVLENFRDEKGDFFCFAGQTQIGVTDNLNLYRCSQVCFPGEKIMEEAKTFTTNHLQNALAKNNAFDKWAVKKDLPGEVEYAIKYPWHRSMPRLEARSYIEQFGSNDVWLGKTVYKMLYVSNEKYLELAKLDFNMVQALHQKETQHIVSWWRESGFNDLTFTRQRPVEMYFSVAVSMFEPEFAACRIAYAKTSCLAVILDDLYDTHGSLDDLKLFSEAVRRWDISVLDSVRDNQLKVCFLGLYNTVNGFGKDGLKEQGRDVLGYLRKVWEGLLASYTKEAEWSAAKYVPTFNEYVENAKVSIALATVVLNSIFFTGELLPDYILQQVDLRSKFLHLVSLTGRLINDTKTYQAERNRGELVSSVQCYMRENPECTEEEALSHVYGIIDNALKELNWELANPASNAPLCVRRLLFNTARVMQLFYMYRDGFGISDKEMKDHVSRTLFDPVA
As for B2, the “diterpene products on expression in EHY18” value was “produced (+)-copalol, levopimaradiene, abietadiene, and abietatriene”. Besides, the “diterpene production relative to wild-type synthase” value (EHY18) was “approximately four”. Under setting [1], the “net yield of (+)-copalol” value was roughly 0.2 mg/L and the “net yield of diterpene hydrocarbons” value was roughly 0.8 mg/L.
